# Measured values published in the DeepSol protein solubility set.
# Assay: soluble on expression in E. coli; label from the status in PepcDB or PDB records
row,Sequence,soluble on expression in E. coli
1,GAMAPHFKEELRNLNVRYQSNATLVCKVTGHPKPIVKWYRQGKEIIADGLKYRIQEFKGGYHQLIIASVTDDDATVYQVRATNQGGSVSGTASLEVEVPAKIHLPKTLEGMGAVHALRGEVVSIKIPFSGKPDPVITWQKGQDLIDNNGHYQVIVTRSFTSLVFPNGVERKDAGFYVVCAKNRFGIDQKTVELDVADVPDPPRGVKVSDVSRDSVNLTWTEPASDGGSKITNYIVEKCATTAERWLRVGQARETRYTVINLFGKTSYQFRVIAENKFGLSKPSEPSEPTITKEDKTRAMNYDEEV,soluble
2,MGSDKIHHHHHHMARIARVIATGIPHHVTQRGNRRMPTFFNDEDYRAYIALLGEWCRKCGVDIWAYCLMPNHVHLIAVPETDDGLRRGIGEAHRRYSRMINFRENWRGHLWQGRFASFPMDESYLLAAARYVEMNPVRARLTPKAALWPWSSARAHLDRMDDELVKVAPLLELVGDWSLFLAGTGEEDQLNDIRKHERTGRPLGTEEFVERLESALERPLKKGKPGPKGNDN,not soluble
3,MAIPAFHPGELNVYSAPGDVADVSRALRLTGRRVMLVPTMGALHEGHLALVRAAKRVPGSVVVVSIFVNPMQFGAGGDLDAYPRTPDDDLAQLRAEGVEIAFTPTTAAMYPDGLRTTVQPGPLAAELEGGPRPTHFAGVLTVVLKLLQIVRPDRVFFGEKDYQQLVLIRQLVADFNLDVAVVGVPTVREADGLAMSSRNRYLDPAQRAAAVALSAALTAAAHAATAGAQAALDAARAVLDAAPGVAVDYLELRDIGLGPMPLNGSGRLLVAARLGTTRLLDNIAIEIGTFAGTDRPDGYRA,soluble
4,MGSDKIHHHHHHMEEANFYHALKIDNDRCIGCTHCMKECPTGAIRIRDGKALIHKDWCVDCGECLKSCPTEAIYVEQDDFQRIFDYKCRVALMPTVFIGQFSKYTTEKEIISAVMELGFTHVFQVEFTADMIHKEMVRQMENAEEKPVISSFCPAIVRLIQVRFPALVDNILLVKAPVNASATYYHKILEGQGVPSEEIGIFYVTPCAAKIAALKGAEGYSSTIKGVINMDTLYNKVYHILKNRPRGYEPECELPPPLTKKEMRWSQTGGEAKHFSGRCLAIDEIHNVIDFLERMETTSEVRNVDFLELRACDRSCAGGVLAVANRFLTAERIMKRSMNRDKVPMIYAADNFEALSYLRQHITIRPVQPNPKRLYDGTIDEMLKKMEQVRKLMCYLPGIDCGACGSPNCQSLAEDIVRHEAQFSDCVFMQRNMEKHGKLDQEHAFRIVEKTWGKDRLNKDCYKKGAKYEGL,not soluble
5,MKHNLNAHEARVIGCLLEKQVTTPEQYPMSLNGLTLACNQKTSRDPVMELSESQVQQTLDFLLKKHLIRSQSGNRVMKYEHRFCNSEFGDLKFSPAEVAVITLLLLRGAQTPGELRTRTNRMYEFADVAETEETLKTLSLREDGPFVVRLAREPGKRESRFMPLFSGDVASSLLAAGEAEENNHTLEANPRETHSFENIALEKTALEARVAQLEQQVIQLSRRLDDVLIQLDDMKKLRVGIVGLGGIAQKAYLPILTQAQGWQLVGAFSPNQAKAQPLCDSYRMRYFSRLDTLAAASDAVFVHSSTASHFQVVHDLLQAGVHVYVDKPLAETREQSEQLIELADKQHLALMVGFNRRFAPLYQQLKQQASSPVSLRMEKHRLSSIGPHDLGFTLLDDYLHVVDTALWLGGEGARLTGGAVQTNAQGQMLYAEHHFQQGGCLITTSMHRQAGTQRESVQVISDGACYHITDMRQWQQASAGQVISQPAPGWQTTLEQRGFTGAVHHFIEAVSNQTRPQVSGEDAIVAQRMIERILQQ,not soluble
6,DDDLEVKEENGVWVLNDGNFDNFVADKDTVLLEFYAPWCGHCKQFAPEYEKIASTLKDNDPPIAVAKIDATSASMLASKFDVSGYPTIKILKKGQAVDYDGSRTQEEIVAKVREVSQPDWTPPPEVT,soluble
7,ETRVRRTKTIVEITGLDARSGSLRINELYRWEPVHDNFKRAGDSYVLNEIMRARGWSPDKLFIEFKNREQILAYMTAKQIRDYVSVSLIVHMYATNPQLVMEAVGNDTLRDMVAHHS,not soluble
8,MAHHHHHHMNGNHGEPGTERENRSSADEAPKGDAFFDPSAEQYLVISPRQKLNPVLKKINRVRYKFSNIIPDFLIGKNNACLFISMKYHRLRSNYLKARIETLSNKYSNRILLCLVDIENIENSLGEINQLAFCFNMTLILCWSTEECARVIEDFKIYEKKISYIRNNKLTSTHAEKIHELLKKIRCINSSDCATITNKFKSFKNIVTAKKDDLINCSGLGNKKIQALISAFNDPFF,soluble
